In patent publication US20040132130 one finds Km value, OMGnT activity (pmol/hr/mg protein) (pmol/hr/mg protein) and OMGnT relative activity (%) data, which are given here for one substance.

The subject of this series is Ac-Ala-Ala-Pro-Thr(Man)-Pro-Val-Ala-Ala-Pro-NH2.

His-Xpress-sOMGnT(L), sequence (chain, as listed by the source): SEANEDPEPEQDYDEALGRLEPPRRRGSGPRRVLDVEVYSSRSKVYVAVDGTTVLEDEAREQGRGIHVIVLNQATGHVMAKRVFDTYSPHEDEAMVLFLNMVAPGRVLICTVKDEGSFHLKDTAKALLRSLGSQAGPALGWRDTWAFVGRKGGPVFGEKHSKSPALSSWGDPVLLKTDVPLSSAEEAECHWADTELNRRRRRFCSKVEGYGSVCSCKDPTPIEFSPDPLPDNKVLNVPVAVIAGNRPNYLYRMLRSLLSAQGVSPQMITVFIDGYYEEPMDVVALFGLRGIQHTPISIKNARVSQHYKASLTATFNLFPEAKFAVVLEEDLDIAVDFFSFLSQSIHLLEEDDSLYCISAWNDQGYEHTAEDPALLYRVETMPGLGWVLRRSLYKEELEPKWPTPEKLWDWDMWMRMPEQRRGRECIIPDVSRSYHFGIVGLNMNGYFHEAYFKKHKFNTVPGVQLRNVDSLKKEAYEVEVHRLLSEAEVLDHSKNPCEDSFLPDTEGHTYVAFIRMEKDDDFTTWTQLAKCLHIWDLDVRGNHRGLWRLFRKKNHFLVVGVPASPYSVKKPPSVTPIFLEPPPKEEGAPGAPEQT

Take His-Xpress-sOMGnT(L): the Km value is 1850 µM, the OMGnT activity (pmol/hr/mg protein) (pmol/hr/mg protein) stood at 15 and the OMGnT relative activity (%) amounted to 100%.
